Measurements as given in patent US20230048633A1 (SHATTUCK LABS, published 2023).

B1: mTGFBR2-Fc-4-1BBL chimeric protein (Fc fusion, mouse, UniProt Q62312 24-166, looked up)
chain: IPPHVPKSVNSDVMASDNGGAVKLPQLCKFCDVRLSTCDNQKSCMSNCSITAICEKPHEVCVAVWRKNDKNITLETVCHDPKLTYHGFTLEDAASPKCVMKEKKRAGETFFMCACNMEECNDYIIFSEEYTTSSPDLLLVIIQVPRDCGCKPCICTVPEVSSVFIFPPKPKDVLTITLTPKVTCVVVDISKDDPEVQFSWFVDDVEVHTAQTQPREEQFNSTFRSVSELPIMHQDWLNGKEFKCRVNSAAFPAPIEKTISKTKGRPKAPQVYTIPPPKEQMAKDKVSLTCMITDFFPEDITVEWQWNGQPAENYKNTQPIMNTNGSYFVYSKLNVQKSNWEAGNTFTCSVLHEGLHNHHTEKSLSHSPGKRTEPRPALTITTSPNLGTRENNADQVTPVSHIGCPNTTQQGSPVFAKLLAKNQASLCNTTLNWHSQDGAGSSYLSQGLRYEEDKKELVVDSPGLYYVFLELKLSPTFTNTGHKVQGWVSLVLQAKPQVDDFDNLALTVELFPCSMENKLVDRSWSQLLLLKAGHRLSVGLRAYLHGAQDAYRDWELSYPNTTSFGLFLVKPDNPWE
notes: extracellular domain;domain: hinge-CH2-CH3 Fc domain; also called murine TGFBR2-Fc-4-1BBL; TGFBR2-Fc-CD137L
B2: hTGFBR2-Fc-NKG2A chimeric protein (Fc fusion)
chain: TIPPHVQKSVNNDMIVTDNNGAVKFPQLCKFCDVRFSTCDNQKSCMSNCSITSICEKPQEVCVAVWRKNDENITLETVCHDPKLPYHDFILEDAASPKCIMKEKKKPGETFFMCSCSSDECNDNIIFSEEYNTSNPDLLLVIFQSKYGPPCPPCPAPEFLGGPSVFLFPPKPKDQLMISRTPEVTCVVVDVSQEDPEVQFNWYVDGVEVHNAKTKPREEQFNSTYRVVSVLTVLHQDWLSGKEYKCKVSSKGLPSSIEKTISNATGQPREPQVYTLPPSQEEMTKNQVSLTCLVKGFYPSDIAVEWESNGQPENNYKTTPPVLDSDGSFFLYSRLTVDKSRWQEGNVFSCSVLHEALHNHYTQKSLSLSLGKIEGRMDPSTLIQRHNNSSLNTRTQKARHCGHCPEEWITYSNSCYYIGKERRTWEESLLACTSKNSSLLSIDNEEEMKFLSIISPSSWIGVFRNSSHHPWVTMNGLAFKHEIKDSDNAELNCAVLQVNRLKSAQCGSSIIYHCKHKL
notes: also called human TGFBR2-Fc-NKG2A
B3: recombinant 4-1BB-His protein (receptor, mouse, UniProt P20334 24-187, looked up)
chain: VQNSCDNCQPGTFCRKYNPVCKSCPPSTFSSIGGQPNCNICRVCAGYFRFKKFCSSTHNAECECIEGFHCLGPQCTRCEKDCRPGQELTKQGCKTCSLGTFNDQNGTGVCRPWTNCSLDGRSVLKTGTTEKDVVCGPPVVSFSPSTTISVTPEGGPGGHSLQVL
notes: also called m4-1BB-His; CD137; not shown: His tag

Experiments:
[1] = target: B3; test: ELISA: plate coated with 41BB-His (5ug/ml, Acro 41B-M52H7), titrated protein captured, detected with α-mFc-HRP (1:10k, Jax 115-036-003)
Experimental: The TGFBR2-based chimeric proteins harbor type II transmembrane protein domains at or near the C-terminus. To understand whether the type II transmembrane protein domains from the native chimeric proteins can bind their natural ligands/receptors, ELISA-based assays were performed. TGFBR2-Fc-4-1BBL comprises 4-1BB ligand (4-1BBL or TNFSF9) as the type II membrane protein located at or near the C-terminus. 4-1BB (CD137, TNFRSF9) is the natural receptor/ligand of 4-1BBL. To understand whether the type II transmembrane protein domain part of the native TGFBR2-Fc-4-1BBL chimeric protein can bind 4-1BB, ELISA-based assays were performed. Recombinant 4-1BB-His protein was coated on plates. Increasing amounts of the TGFBR2-Fc-4-1BBL chimeric protein, or a positive control protein comprising Fc-4-1BBL (Control-Fc-4-1BBL) were added for capture by the plate-bound 4-1BB-His protein. Binding was detected using an anti mFc-HRP antibody. […] Therefore, the type II transmembrane protein domain of the TGFBR2-Fc-4-1BBL and Control-Fc-4-1BBL chimeric proteins bind to the natural ligand/receptor of the 4-1BBL.

[2] = target: T1, m4-1BB expressed on CHO-K1 cells (CHO-K1/m4-1BB+ (C20)) (mouse, UniProt P20334 24-256); test: flow cytometry on CHO-K1/m4-1BB+ (C20) cells, detected with Anti-mFc-APC (Jax 1:50)
T1 construct: whole, on cells; also called CHO-K1/4-1BB cells; 4-1BB expressed by the CHO-K1/4-1BB cells
T1 sequence (looked up): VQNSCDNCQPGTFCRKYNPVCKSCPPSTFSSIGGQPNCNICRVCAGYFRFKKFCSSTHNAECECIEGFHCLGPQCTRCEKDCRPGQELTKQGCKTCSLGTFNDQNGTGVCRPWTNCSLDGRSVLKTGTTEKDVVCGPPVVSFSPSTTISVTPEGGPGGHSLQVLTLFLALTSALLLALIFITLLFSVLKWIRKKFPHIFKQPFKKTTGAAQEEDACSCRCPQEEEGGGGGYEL
Experimental: To understand whether the 4-1BBL part of the mTGFBR2-Fc-4-1BBL chimeric protein can specifically bind cells expressing 4-1BB, cells expressing 4-1 BB were generated. Specifically, the CHO-K1 cells expressing 4-1 BB were generated using standard techniques. Clone 20, a positive clone, called CHO-K1/m4-1BB+ (C20), was used for further studies. To determine whether the mTGFBR2-Fc-4-1BBL chimeric protein can specifically bind the CHO-K1/4-1BB cells, a flow-cytometry-based assay was carried out. CHO-K1/m4-1BB+(C20) and WT CHO-K1 cells were stained with increasing concentrations of the TGFBR2-Fc-4-1BBL chimeric protein, or positive control protein comprising Fc-4-1BBL (Control-Fc-4-1BBL) and analyzed by flow cytometry. Unstained CHO-K1/m4-1BB+ (C20) and WT CHO-K1 cells or CHO-K1/m4-1BB+ (C20) and WT CHO-K1 cells stained without the TGFBR2-Fc-4-1BBL chimeric protein, or positive control protein comprising Fc-4-1BBL (Control-Fc-4-1BBL) were used as control.

[3] = target: T2, anti-human IgG antibody; test: ELISA: plate coated with Anti-Human IgG (H+L) Jax# 109-005-088, titrated protein captured, detected with HRP Goat anti-human FCgamma Jax# 109-035-008
T2 construct: also called anti-human Fc antibody
Experimental: To understand whether the human Fc linkers from the native chimeric proteins can be accessed by anti-human antibodies, ELISA-based assays were performed. For these assays, an anti-human IgG antibody was coated on plates and increasing amounts of the hCD86-Fc-NKG2A, hTGFBR2-Fc-NKG2A, and mCD80-Fc-NKG2a chimeric proteins, and a human IgG antibody were added to the plates for capture by the plate-bound anti-human antibody. The human IgG antibody and the hCD86-Fc-NKG2A chimeric protein were used as a positive control. The mCD80-Fc-NKG2a chimeric protein was included as a negative control as containing a non-human Fc domain. The protein bound to the anti-human IgG antibody was detected using an anti-human Fcgamma HRP.

[4] = target: T3, recombinant mouse 4-1 BB Ligand protein (R&D Systems, Cat. No. 1246-4L) (mouse, UniProt P41274 104-309); test: Octet (4-1BB Arc Octet): 41BB His (5ug/ml, Acro 41B-M52H7) on the tip, All Molecules at 30ug/ml; rm41BBL R&D 1246-4L
T3 construct: Bought reagent; also called commercially available recombinant mouse 4-1 BB Ligand protein
T3 sequence (looked up): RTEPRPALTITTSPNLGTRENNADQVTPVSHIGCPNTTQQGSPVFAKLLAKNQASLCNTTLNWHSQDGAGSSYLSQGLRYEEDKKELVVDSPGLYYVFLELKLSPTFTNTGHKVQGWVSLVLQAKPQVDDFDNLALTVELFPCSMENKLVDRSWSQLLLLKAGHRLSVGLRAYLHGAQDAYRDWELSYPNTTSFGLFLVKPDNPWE
Experimental: To study the binding kinetics of type II transmembrane protein domain and TGFBR2 parts of the illustrative TGFBR2-based chimeric proteins, binding assays were performed using the Octet system (ForteBio). Binding of the TGFBR2-Fc-4-1BBL chimeric protein to recombinant 4-1BB was analyzed. Briefly, recombinant 4-1BB-His protein was immobilized and detected using the mTGFBR2-Fc-4-1BBL chimeric protein, a positive control protein comprising Fc-4-1BBL (Control-Fc-4-1BBL) or commercially available recombinant mouse 4-1 BB Ligand protein (R&D Systems, Cat. No. 1246-4L). The binding response of the mTGFBR2-Fc-4-1BBL chimeric protein to 4-1BB-His protein was measured and plotted in real time on a sensorgram trace.

B1
EC50 (read off the curve) [1]: ~0.07 µg/mL | EC50 (read off the curve) [2]: ~0.08 µg/mL

B2
EC50 (read off the curve) [3]: ~10 µg/mL

B3
binding result [4]: binds
